{"source": "paper PMC11931385", "about": "“Structural and functional analysis of cancer-associated missense variants in the retinoblastoma protein pocket domain” (The Journal of Biological Chemistry, 2025)", "assay_in_all_cases": "fluorescence polarisation; 25 °C; unlabeled Rb^P titrated against 1.5 nM TMR-E2F1^TD or 7.5 nM TMR-E7^LxCxE; 25 mM Tris pH 8.0, 200 mM NaCl, 1 mM DTT, 0.1% Tween-20; 2 min incubation; quadratic fit; apparent Kd for the variants, Kd for WT", "settings_in_all_cases": "both partners purified", "key": {"Rb^P R741C": {"target": "T1, Rb^P R741C (human, UniProt P06400 380-788, R741C)", "T1 construct": "also called variant 68", "T1 sequence (looked up)": "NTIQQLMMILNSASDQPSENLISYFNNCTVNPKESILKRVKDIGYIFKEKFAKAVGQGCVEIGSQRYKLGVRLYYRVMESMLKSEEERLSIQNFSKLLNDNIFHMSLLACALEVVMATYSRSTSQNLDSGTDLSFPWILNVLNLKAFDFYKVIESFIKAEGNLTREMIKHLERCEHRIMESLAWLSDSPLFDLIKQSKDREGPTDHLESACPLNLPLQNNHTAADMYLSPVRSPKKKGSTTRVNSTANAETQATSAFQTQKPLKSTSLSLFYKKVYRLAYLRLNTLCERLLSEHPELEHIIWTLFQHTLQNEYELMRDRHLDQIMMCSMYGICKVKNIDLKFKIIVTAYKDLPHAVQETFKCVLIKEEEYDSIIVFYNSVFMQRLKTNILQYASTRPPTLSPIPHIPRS"}, "Rb^P R451S": {"target": "T2, Rb^P R451S (human, UniProt P06400 380-788, R451S)", "T2 construct": "also called variant 7", "T2 sequence (looked up)": "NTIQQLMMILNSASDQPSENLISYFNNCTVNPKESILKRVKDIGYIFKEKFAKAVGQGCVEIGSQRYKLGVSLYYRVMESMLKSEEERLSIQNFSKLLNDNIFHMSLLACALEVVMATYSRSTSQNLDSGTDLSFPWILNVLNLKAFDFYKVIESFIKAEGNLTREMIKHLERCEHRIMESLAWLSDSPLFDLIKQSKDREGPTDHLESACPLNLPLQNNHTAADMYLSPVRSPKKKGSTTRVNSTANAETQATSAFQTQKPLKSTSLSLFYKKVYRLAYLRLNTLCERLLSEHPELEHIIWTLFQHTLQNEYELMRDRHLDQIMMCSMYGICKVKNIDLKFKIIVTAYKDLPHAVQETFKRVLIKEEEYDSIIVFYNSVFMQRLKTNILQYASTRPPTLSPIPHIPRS"}, "Rb^P Q444L": {"target": "T3, Rb^P Q444L (human, UniProt P06400 380-788, Q444L)", "T3 construct": "also called variant 3", "T3 sequence (looked up)": "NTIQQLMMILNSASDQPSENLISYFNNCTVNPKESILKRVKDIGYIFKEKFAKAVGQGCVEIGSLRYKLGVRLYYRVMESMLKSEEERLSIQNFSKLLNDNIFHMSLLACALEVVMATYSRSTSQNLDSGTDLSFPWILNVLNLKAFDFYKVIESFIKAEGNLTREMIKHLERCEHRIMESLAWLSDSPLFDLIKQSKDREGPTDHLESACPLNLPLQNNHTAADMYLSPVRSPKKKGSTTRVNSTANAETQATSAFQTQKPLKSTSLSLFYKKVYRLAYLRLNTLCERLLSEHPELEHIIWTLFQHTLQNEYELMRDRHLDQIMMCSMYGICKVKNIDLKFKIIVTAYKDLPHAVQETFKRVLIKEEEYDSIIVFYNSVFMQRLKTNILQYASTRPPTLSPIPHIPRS"}, "Rb^P D584Y": {"target": "T4, Rb^P D584Y (human, UniProt P06400 380-788, D584Y)", "T4 construct": "also called variant 32", "T4 sequence (looked up)": "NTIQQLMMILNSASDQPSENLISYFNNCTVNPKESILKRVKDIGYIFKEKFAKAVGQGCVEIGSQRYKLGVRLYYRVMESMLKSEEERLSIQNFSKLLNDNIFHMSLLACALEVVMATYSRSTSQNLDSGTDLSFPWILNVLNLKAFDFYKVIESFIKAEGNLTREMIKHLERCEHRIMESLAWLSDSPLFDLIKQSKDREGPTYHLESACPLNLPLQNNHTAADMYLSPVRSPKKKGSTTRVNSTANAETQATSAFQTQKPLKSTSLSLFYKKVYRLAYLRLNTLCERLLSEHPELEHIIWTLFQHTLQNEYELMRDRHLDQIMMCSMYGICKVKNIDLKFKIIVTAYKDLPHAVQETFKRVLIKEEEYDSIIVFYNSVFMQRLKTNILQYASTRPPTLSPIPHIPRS"}, "Rb^P D604G": {"target": "T5, Rb^P D604G (human, UniProt P06400 380-788, D604G)", "T5 construct": "also called variant 36", "T5 sequence (looked up)": "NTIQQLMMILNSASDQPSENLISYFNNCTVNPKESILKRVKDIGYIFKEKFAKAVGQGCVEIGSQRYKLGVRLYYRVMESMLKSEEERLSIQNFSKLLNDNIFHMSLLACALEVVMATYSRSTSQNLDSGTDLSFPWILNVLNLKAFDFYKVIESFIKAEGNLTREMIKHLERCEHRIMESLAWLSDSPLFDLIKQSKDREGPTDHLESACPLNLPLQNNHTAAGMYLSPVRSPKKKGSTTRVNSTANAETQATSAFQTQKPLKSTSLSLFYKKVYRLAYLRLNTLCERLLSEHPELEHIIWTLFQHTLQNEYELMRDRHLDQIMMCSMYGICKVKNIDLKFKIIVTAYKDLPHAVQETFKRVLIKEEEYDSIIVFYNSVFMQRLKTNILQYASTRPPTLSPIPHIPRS"}}, "note": "No end group written: not given here. TMR = tetramethyl rhodamine dye", "data": [{"binder": "{TMR}-GEGIRDLFDCDFGDLTPLD (also called E2F^TD; source: synthetic peptide, bought: GenScript)", "note": "[TMR-E2F1^TD, peptide of the E2F1 transactivation domain]", "values": [{"measurement": "Kd", "setting": "Rb^P R741C", "result": 23, "unit": "nM"}, {"measurement": "Kd", "setting": "Rb^P R451S", "result": 26, "unit": "nM"}, {"measurement": "Kd", "setting": "Rb^P Q444L", "result": 14, "unit": "nM"}, {"measurement": "Kd", "setting": "Rb^P D584Y", "result": 33, "unit": "nM"}, {"measurement": "Kd", "setting": "Rb^P D604G", "result": 27, "unit": "nM"}]}, {"binder": "DLYCYEQLN (also: TMR label, position not given here, source: synthetic peptide, bought: GenScript)", "note": "[TMR-E7^LxCxE, LxCxE peptide of the E7 oncoprotein from HPV]", "values": [{"measurement": "Kd", "setting": "Rb^P R741C", "result": 14, "unit": "nM"}, {"measurement": "Kd", "setting": "Rb^P R451S", "result": 9, "unit": "nM"}, {"measurement": "Kd", "setting": "Rb^P Q444L", "result": 4, "unit": "nM"}, {"measurement": "Kd", "setting": "Rb^P D584Y", "result": 12, "unit": "nM"}, {"measurement": "Kd", "setting": "Rb^P D604G", "result": 13, "unit": "nM"}]}]}
